Reference: article PMC8809517, “Cofactor-independent RNA editing by a synthetic S-type PPR protein”

T1: GFP-9S library array, motif 4 ND D124Q (synthetic construct, D124Q)
T1 chain: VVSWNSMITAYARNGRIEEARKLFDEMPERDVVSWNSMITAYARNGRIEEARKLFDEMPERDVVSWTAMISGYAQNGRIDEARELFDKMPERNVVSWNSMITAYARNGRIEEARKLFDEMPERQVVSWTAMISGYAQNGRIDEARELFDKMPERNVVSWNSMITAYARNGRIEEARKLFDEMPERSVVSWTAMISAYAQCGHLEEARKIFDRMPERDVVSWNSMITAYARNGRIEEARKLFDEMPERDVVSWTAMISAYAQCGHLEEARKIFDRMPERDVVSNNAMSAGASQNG

T2: GFP-9S library array, motif 4 ND N98D;D124W (synthetic construct, N98D;D124W)
T2 chain: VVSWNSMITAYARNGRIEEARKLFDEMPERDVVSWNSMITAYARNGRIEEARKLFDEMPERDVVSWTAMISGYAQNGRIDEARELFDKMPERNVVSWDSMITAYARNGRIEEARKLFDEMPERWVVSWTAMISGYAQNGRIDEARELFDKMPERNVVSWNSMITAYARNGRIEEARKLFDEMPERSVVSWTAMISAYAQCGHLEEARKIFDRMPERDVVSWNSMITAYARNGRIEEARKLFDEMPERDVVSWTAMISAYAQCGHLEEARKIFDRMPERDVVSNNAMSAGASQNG

T3: GFP-9S library array, motif 4 ND N98I;D124G (synthetic construct, N98I;D124G)
T3 chain: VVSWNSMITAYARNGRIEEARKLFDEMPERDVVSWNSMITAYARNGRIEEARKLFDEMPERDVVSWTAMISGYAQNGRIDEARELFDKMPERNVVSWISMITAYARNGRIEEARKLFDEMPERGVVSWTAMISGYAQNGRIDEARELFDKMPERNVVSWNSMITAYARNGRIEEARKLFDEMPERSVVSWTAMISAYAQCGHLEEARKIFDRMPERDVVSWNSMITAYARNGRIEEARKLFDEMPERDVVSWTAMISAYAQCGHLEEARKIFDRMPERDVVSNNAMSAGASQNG

T4: GFP-9S library array, motif 4 ND N98H;D124L (synthetic construct, N98H;D124L)
T4 chain: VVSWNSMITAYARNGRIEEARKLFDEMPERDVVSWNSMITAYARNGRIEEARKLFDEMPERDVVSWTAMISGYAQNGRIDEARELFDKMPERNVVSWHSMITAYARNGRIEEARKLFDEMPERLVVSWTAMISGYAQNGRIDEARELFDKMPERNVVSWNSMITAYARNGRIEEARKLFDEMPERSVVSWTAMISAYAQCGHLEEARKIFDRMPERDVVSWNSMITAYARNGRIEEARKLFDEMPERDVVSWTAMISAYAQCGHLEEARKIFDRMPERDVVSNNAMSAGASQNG

T5: GFP-9S library array, motif 4 ND N98S;D124I (synthetic construct, N98S;D124I)
T5 chain: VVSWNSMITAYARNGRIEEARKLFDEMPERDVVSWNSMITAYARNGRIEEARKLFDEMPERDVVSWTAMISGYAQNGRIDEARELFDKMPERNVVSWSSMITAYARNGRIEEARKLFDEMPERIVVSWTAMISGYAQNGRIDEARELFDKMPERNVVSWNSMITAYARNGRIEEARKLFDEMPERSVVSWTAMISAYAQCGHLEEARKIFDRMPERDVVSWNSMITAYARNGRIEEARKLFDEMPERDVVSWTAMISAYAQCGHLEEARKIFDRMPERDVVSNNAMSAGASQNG


Columns and labels:
Experiment in all cases: high-throughput RNA pulldown from lysate on Ni-NTA beads; HRP: 50 mM Tris pH 8, 150 mM NaCl, 1 mM beta-mercaptoethanol, 50 ug/ml BSA, 3 ug/ml yeast RNA, 0.5% heparin; ITC and FP: Tris pH 8, 200 mM KCl, 5% glycerol; MST: 50 mM Tris pH 8, 200 mM NaCl, 1 mM DTT, BSA, heparin, 0.05% Tween 20
Conditions in all cases: tags: N-terminal His-eGFP
[1] = biological target: T1, GFP-9S library array, motif 4 ND D124Q
[2] = biological target: T2, GFP-9S library array, motif 4 ND …
[3] = biological target: T3, GFP-9S library array, motif 4 ND …
[4] = biological target: T4, GFP-9S library array, motif 4 ND …
[5] = biological target: T5, GFP-9S library array, motif 4 ND …

Row | Binder | Kd ([1]; label: 5' Cy5) [nM] | Kd ([2]; label: 5' Cy5) [nM] | Kd ([3]; label: 5' Cy5) [nM] | Kd ([4]; label: 5' Cy5) [nM] | Kd ([5]; label: 5' Cy5) [nM] | Kd ([1]; label: 5' IRDye 800CW) [nM] | Kd ([2]; label: 5' IRDye 800CW) [nM] | Kd ([3]; label: 5' IRDye 800CW) [nM] | Kd ([4]; label: 5' IRDye 800CW) [nM] | Kd ([5]; label: 5' IRDye 800CW) [nM]
1 | AUUACACGUGA (ssRNA) [Cy5-rpoA] | 68 | 134 | 69.2 | 60.1 | 74.7 |  |  |  |  | 
2 | AUUAGACGUGA (ssRNA) [Cy5-rpoA-G] | 898 | 178 | 72 | 55.6 | 71.4 |  |  |  |  | 
3 | AUUAAACGUGA (ssRNA) [IR-rpoA-A] |  |  |  |  |  | 490 | 572 | 40.6 | 82.1 | 113
4 | AUUAUACGUGA (ssRNA) [IR-rpoA-U] |  |  |  |  |  | 25.9 | 202 | 26.6 | 32.7 | 152
